Target: CENP-A-H4 complex (UniProt P49450 1-140; P62805 1-103)
Experiment: native gel or EMSA

Chain of CENP-A-H4 complex (P49450 whole entry, one chain of several): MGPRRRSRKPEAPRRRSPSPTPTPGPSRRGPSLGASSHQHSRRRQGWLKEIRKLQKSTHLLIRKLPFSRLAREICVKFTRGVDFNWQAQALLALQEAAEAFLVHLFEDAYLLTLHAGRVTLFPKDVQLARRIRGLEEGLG

binding result: binds
B1: His6-EWSR1 (natural protein)
chain: MASTDYSTYSQAAAQQGYSAYTAQPTQGYAQTTQAYGQQSYGTYGQPTDVSYTQAQTTATYGQTAYATSYGQPPTGYTTPTAPQAYSQPVQGYGTGAYDTTTATVTTTQASYAAQSAYGTQPAYPAYGQQPAATAPTRPQDGNKPTETSQPQSSTGGYNQPSLGYGQSNYSYPQVPGSYPMQPVTAPPSYPPTSYSSTQPTSYDQSSYSQQNTYGQPSSYGQQSSYGQQSSYGQQPPTSYPPQTGSYSQAPSQYSQQSSSYGQQSSFRQDHPSSMGVYGQESGGFSGPGENRSMSGPDNRGRGRGGFDRGGMSRGGRGGGRGGMGSAGERGGFNKPGGPMDEGPDLDLGPPVDPDEDSDNSAIYVQGLNDSVTLDDLADFFKQCGVVKMNKRTGQPMIHIYLDKETGKPKGDATVSYEDPPTAKAAVEWFDGKDFQGSKLKVSLARKKPPMNSMRGGLPPREGRGMPPPLRGGPGGPGGPGGPMGRMGGRGGDRGGFPPRGPRGSRGNPSGGGNVQHRAGDWQCPNPGCGNQNFAWRTECNQCKAPKPEGFLPPPFPPPGGDRGRGGPGGMRGGRGGLMDRGGPGGMFRGGRGGDRGGFRGGRGMDRGGFGGGRRGGPGGPPGPLMEQMGGRRGGRGGPGKMDKGEHRQERRDRPY

Reference: article PMC10758295 (Cell reports, 2023)
